Data: article PMC8368002, “Crystal structure of the INTS3/INTS6 complex reveals the functional importance of INTS3 dimerization in DSB repair” (Cell Discovery, 2020)

B1: C-terminus of INTS3 (INTS3c), residues 560–905 and 915–995 (domain or fragment, human)
chain 1: TVVEEPVDITPYLDQLDESLRDKVLQLQKGSDTEAQCEVMQEIVDQVLEEDFDSEQLSVLASCLQELFKAHFRGEVLPEEITEESLEESVGKPLYLIFRNLCQMQEDNSSFSLLLDLLSELYQKQPKIGYHLLYYLRASKAAAGKMNLYESFAQATQLGDLHTCLMMDMKACQEDDVRLLCHLTPSIYTEFPDETLRSGELLNMIVAVIDSAQLQELVCHVMMGNLVMFRKDSVLNILIQSLDWETFEQYCAWQLFLAHNIPLETIIPILQHLKYKEHPEALSCLLLQLRREKPSEEMVKMVLSRPCHPDDQFTTSILRHWCMKHDELLAEHIKSLLIKNNSLPRK
chain 2: KLAQLTLEQILEHLDNLRLNLTNTKQNFFSQTPILQALQHVQASCDEAHKMKFSDLFSLAEEYEDSSTKPPKSRRKAALSS
notes: Two polypeptides of one protein, co-expressed; residues 906-914 are absent; A selenomethionine form was used for phasing (2.6 Å); the final structure is of native crystals (2.4 Å); copies: 2 + 2

How the values were obtained:
hSSB1 [1] = target: T1, hSSB1 (human, UniProt Q9BQ15 1-211); experiment: SPR; hSSB1 immobilized; comparable to INTS3(1-500)/hSSB1; KD only in Fig. S5a; EMSA: 50 mM NaCl, 20 mM HEPES pH 7.5, 1 mM MgCl2, 0.5 mM EDTA, 0.2 mM DTT, on ice 1 h; SPR: 200 mM NaCl, 40 mM HEPES pH 7.5, 50 uM EDTA, 25 C; settings: protein: recombinant
T1 sequence (Q9BQ15 whole entry): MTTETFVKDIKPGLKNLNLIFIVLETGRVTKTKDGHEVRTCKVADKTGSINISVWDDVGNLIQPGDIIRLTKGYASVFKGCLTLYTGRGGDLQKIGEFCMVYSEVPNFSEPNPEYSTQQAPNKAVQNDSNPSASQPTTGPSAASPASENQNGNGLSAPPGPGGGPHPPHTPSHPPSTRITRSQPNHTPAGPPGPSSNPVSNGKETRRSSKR

INTS3 full length;hSSB1 = INTS3 full length;hSSB1 (human;human, UniProt Q68E01-2;Q9BQ15 1-1042;1-211, |); experiment: SPR; KD only in Fig. S5d; EMSA: 50 mM NaCl, 20 mM HEPES pH 7.5, 1 mM MgCl2, 0.5 mM EDTA, 0.2 mM DTT, on ice 1 h; SPR: 200 mM NaCl, 40 mM HEPES pH 7.5, 50 uM EDTA, 25 C; settings: protein: recombinant;recombinant; tags: ;; copies: 1;1
Chain of INTS3 full length;hSSB1 (Q9BQ15 whole entry, one chain of several): as the sequence (Q9BQ15 whole entry) above

INTS3(1-995);hSSB1 [2] = target: T2, INTS3(1-995);hSSB1 (human;human, UniProt Q68E01-2;Q9BQ15 1-995;1-211, |); experiment: SPR; KD only in Fig. S5c; EMSA: 50 mM NaCl, 20 mM HEPES pH 7.5, 1 mM MgCl2, 0.5 mM EDTA, 0.2 mM DTT, on ice 1 h; SPR: 200 mM NaCl, 40 mM HEPES pH 7.5, 50 uM EDTA, 25 C; settings: protein: recombinant;recombinant; tags: ;; chain copies: 2;2
T2 sequence (Q9BQ15 whole entry, one chain of several): as the sequence (Q9BQ15 whole entry) above

[3] = target: T3, INTS3(1-500) (INTS3N);hSSB1 (human;human, UniProt Q68E01-2;Q9BQ15 1-500;1-211, |); experiment: SPR; comparable to hSSB1 alone; KD only in Fig. S5b; EMSA: 50 mM NaCl, 20 mM HEPES pH 7.5, 1 mM MgCl2, 0.5 mM EDTA, 0.2 mM DTT, on ice 1 h; SPR: 200 mM NaCl, 40 mM HEPES pH 7.5, 50 uM EDTA, 25 C; settings: protein: recombinant;recombinant; tags: ;; copies: 1;1
T3 sequence (Q9BQ15 whole entry, one chain of several): as the sequence (Q9BQ15 whole entry) above

[4] = target: INTS3(1-995);hSSB1;INTS6c (human;human;human, UniProt Q68E01-2;Q9BQ15;Q9UL03 1-995;1-211;800-887, ||); experiment: EMSA; 1 mM MgCl2; INTS6c 1:1, no effect on binding; EMSA: 50 mM NaCl, 20 mM HEPES pH 7.5, 1 mM MgCl2, 0.5 mM EDTA, 0.2 mM DTT, on ice 1 h; SPR: 200 mM NaCl, 40 mM HEPES pH 7.5, 50 uM EDTA, 25 C; settings: protein: recombinant;recombinant;recombinant; tags: ;;GST removed; chain copies: 2;2;2; label: 6-FAM (printed 6'-carboxy-fluorescein)
Chain of INTS3(1-995);hSSB1;INTS6c (Q9BQ15 whole entry, one chain of several): as the sequence (Q9BQ15 whole entry) above

INTS3(1-995);hSSB1 [5] = target: T2, INTS3(1-995);hSSB1; experiment: EMSA; 1 mM MgCl2; EMSA: 50 mM NaCl, 20 mM HEPES pH 7.5, 1 mM MgCl2, 0.5 mM EDTA, 0.2 mM DTT, on ice 1 h; SPR: 200 mM NaCl, 40 mM HEPES pH 7.5, 50 uM EDTA, 25 C; settings: protein: recombinant;recombinant; tags: ;; chain copies: 2;2; label: 6-FAM (printed 6'-carboxy-fluorescein)
INTS3c = INTS3c (human, UniProt Q68E01-2;Q68E01-2 560-905;915-995); experiment: EMSA; INTS3c alone unable to bind ssDNA; method inferred; EMSA: 50 mM NaCl, 20 mM HEPES pH 7.5, 1 mM MgCl2, 0.5 mM EDTA, 0.2 mM DTT, on ice 1 h; SPR: 200 mM NaCl, 40 mM HEPES pH 7.5, 50 uM EDTA, 25 C; settings: protein: recombinant; tags: GST removed
Chain of INTS3c (Q68E01 916-996, chain 2 of 2, one chain of several): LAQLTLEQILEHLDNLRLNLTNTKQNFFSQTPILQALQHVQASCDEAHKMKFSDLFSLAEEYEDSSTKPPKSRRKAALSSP

[6] = target: the molecule itself; experiment: crystal structure; INTS3c/INTS6c complex from purified parts, crystallised in 1.7 M ammonium citrate tribasic pH 7.0, 4% v/v pentaerythritol ethoxylate; SAD on selenomethionine INTS3c, native data to 2.4 Å
[7] = target: B1; experiment: as above; settings: both partners purified
[8] = target: the molecule itself; experiment: SEC; analytical size-exclusion chromatography of co-expressed and purified INTS3-hSSB1 complexes (Supplementary Fig. S2)
hSSB1 [9] = target: T1, hSSB1; experiment: EMSA; comparable affinities among the three; EMSA: 50 mM NaCl, 20 mM HEPES pH 7.5, 1 mM MgCl2, 0.5 mM EDTA, 0.2 mM DTT, on ice 1 h; SPR: 200 mM NaCl, 40 mM HEPES pH 7.5, 50 uM EDTA, 25 C; settings: protein: recombinant
INTS3(1-995);hSSB1 [10] = target: T2, INTS3(1-995);hSSB1; experiment: as above; settings: protein: recombinant;recombinant; tags: ;; chain copies: 2;2
[11] = target: T3, INTS3(1-500) (INTS3N);hSSB1; experiment: as above; settings: protein: recombinant;recombinant; tags: ;; copies: 1;1

TTTTTTTTTTTTTTTTTTTTTTTTTTTTTTTTTTTTTTTTTTTTTTTT (ssDNA) [dT48]: binds (hSSB1 [1]); binds (INTS3 full length;hSSB1); binds (INTS3(1-995);hSSB1 [2]). TTTTTTTTTTTTTTTTTTTTTTTTTTTTTTTTTTTTTTTTTTTTTTTT (ssDNA) [dT48]: binds [3].

TTTTTTTTTTTTTTTTTTTTTTTTTTTTTTTTTTTTTTTTTTTTTTTT (ssDNA) [dT48 (FAM)]: binds [4]; binds (INTS3(1-995);hSSB1 [5]).

TTTTTTTTTTTTTTTTTTTTTTTTTTTTTTTTTTTTTTTTTTTTTTTT (ssDNA) [ssDNA of Fig. S4d]: no binding (INTS3c).

B1 was tested, and the “stoichiometry N” value [6] was 2.

B2: C-terminus of INTS6 (INTS6c), residues 800–887 (domain or fragment, human, UniProt Q9UL03 800-887, looked up)
chain: MHCRSHEEVNTELKAQIMKEIRKPGRKYERIFTLLKHVQGSLQTRLIFLQNVIKEASRFKKRMLIEQLENFLDEIHRRANQINHINSN
notes: integrator complex subunit 6 (INTS6), human, residues 800-887; Cloned into pGEX-6p-1
For B2, the “stoichiometry N” value [7] was 2 INTS3c:INTS6c.

B3: INTS3(1−995) (domain or fragment, human, UniProt Q68E01 1-995, looked up)
chain: MELQKGKGAAAAAAASGAAGGGGGGAGAGAPGGGRLLLSTSLDAKDELEERLERCMSIVTSMTAGVSEREANDALNAYVCKGLPQHEEICLGLFTLILTEPAQAQKCYRDLALVSRDGMNIVLNKINQILMEKYLKLQDTCRTQLVWLVRELVKSGVLGADGVCMTFMKQIAGGGDVTAKNIWLAESVLDILTEQREWVLKSSILIAMAVYTYLRLIVDHHGTAQLQALRQKEVDFCISLLRERFMECLMIGRDLVRLLQNVARIPEFELLWKDIIHNPQALSPQFTGILQLLQSRTSRKFLACRLTPDMETKLLFMTSRVRFGQQKRYQDWFQRQYLSTPDSQSLRCDLIRYICGVVHPSNEVLSSDILPRWAIIGWLLTTCTSNVAASNAKLALFYDWLFFSPDKDSIMNIEPAILVMHHSMKPHPAITATLLDFMCRIIPNFYPPLEGHVRQGVFSSLNHIVEKRVLAHLAPLFDNPKLDKELRAMLREKFPEFCSSPSPPVEVKIEEPVSMEMDNHMSDKDESCYDNAEAAFSDDEEDLNSKGKKREFRFHPIKETVVEEPVDITPYLDQLDESLRDKVLQLQKGSDTEAQCEVMQEIVDQVLEEDFDSEQLSVLASCLQELFKAHFRGEVLPEEITEESLEESVGKPLYLIFRNLCQMQEDNSSFSLLLDLLSELYQKQPKIGYHLLYYLRASKAAAGKMNLYESFAQATQLGDLHTCLMMDMKACQEDDVRLLCHLTPSIYTEFPDETLRSGELLNMIVAVIDSAQLQELVCHVMMGNLVMFRKDSVLNILIQSLDWETFEQYCAWQLFLAHNIPLETIIPILQHLKYKEHPEALSCLLLQLRREKPSEEMVKMVLSRPCHPDDQFTTSILRHWCMKHDELLAEHIKSLLIKNNSLPRKRQSLRSSSSKLAQLTLEQILEHLDNLRLNLTNTKQNFFSQTPILQALQHVQASCDEAHKMKFSDLFSLAEEYEDSSTKPPKSRRKAALSS
notes: The complex with hSSB1 was held on an NTA chip for SPR with DNA, so one of its chains may carry a His tag; source: co-expressed with hSSB1 and purified
In the case of B3, the “stoichiometry N” value [8] is reported as 2.

TTTTTTTTTTTT (ssDNA) [dT12]: binds (hSSB1 [9]); binds (INTS3(1-995);hSSB1 [10]); binds [11].
